Reference: PMC8620955
Values joined by “and” are separate entries in the source; they are usually repeats but may differ in a detail not shown here. Equal values may be shown once.

Legend:
[1] = target: HIS-tagged FcγR3A (UniProt P08637); test: SPR; Biacore T200; His-tagged FcγR2B or FcγR3A captured by an anti-HIS antibody on a CM5 chip; antibody as analyte, single-cycle titration, 25 to 400 nM, 30 min dissociation; HBS-T pH 7.4; KD from fits to the responses at equilibrium
[2] = target: HIS-tagged FcγR2B (UniProt P31994); test: as above
[3] = target: HIS-tagged HER2 (Homo sapiens (assumed; trastuzumab target, species not stated)) (UniProt P04626); test: SPR; Biacore T200; His-tagged HER2 (4 nM) captured by an anti-HIS antibody on a CM5 chip; antibody as analyte, single-cycle kinetics, 2-fold dilutions 0.5–8 nM, 20 µL/min for 2 min, 60 min dissociation; HBS-T (10 mM HEPES, 150 mM NaCl, 0.05% Tween 20, pH 7.4); bivalent binding model; duplicate
[4] = target: HIS-tagged FcγR1A (UniProt P12314); test: SPR; Biacore T200; His-tagged FcγR1A captured by an anti-HIS antibody on a CM5 chip; antibody as analyte, single-cycle kinetics, 2.5 to 40 nM, 30 min dissociation; HBS-T pH 7.4; bivalent binding model

| Substance | Kd [1] | Kd [2] | Kd [3] | Kd [4] | kon [4] | koff [4] |
| --- | --- | --- | --- | --- | --- | --- |
| Trastuzumab Q178N (antibody) | 0.239 µM and 0.217 µM | 0.485 µM | – | 0.0026 µM and 0.0025 µM | 370000 M⁻¹ s⁻¹ | – |
| Trastuzumab L177N (antibody) | 0.535 µM and 0.551 µM | 1.28 µM and 0.992 µM | – | 0.0056 µM | 250000 M⁻¹ s⁻¹ and 260000 M⁻¹ s⁻¹ | 0.0014 s⁻¹ and 0.0015 s⁻¹ |
| Trastuzumab Q160N (antibody) | 0.596 µM and 0.535 µM | 0.143 µM | – | 0.0065 µM and 0.0067 µM | 120000 M⁻¹ s⁻¹ and 110000 M⁻¹ s⁻¹ | 0.00076 s⁻¹ |
| Herceptin (antibody) | 0.267 µM | 0.666 µM | – | 0.0047 µM | – | – |

Results, then the substance that gave them:

| Kd [1] | Kd [2] | Kd [3] | Kd [4] | kon [4] | koff [4] | Substance |
| --- | --- | --- | --- | --- | --- | --- |
| 0.301 µM and 0.394 µM | 0.269 µM and 0.338 µM | 0.00113 µM and 0.00116 µM | 0.0064 µM and 0.0037 µM | – | – | Trastuzumab L115N (antibody) |
| – | 0.666 µM | – | 0.0038 µM | 240000 M⁻¹ s⁻¹ | 0.00088 s⁻¹ and 0.0009 s⁻¹ | Trastuzumab T198N (antibody) |
| – | – | – | 0.0082 µM and 0.0081 µM | – | 0.0015 s⁻¹ | Trastuzumab L182N (antibody) |
| 0.295 µM and 0.268 µM | 3.14 µM and 3.74 µM | – | 0.0048 µM | 170000 M⁻¹ s⁻¹ and 200000 M⁻¹ s⁻¹ | 0.00083 s⁻¹ and 0.00098 s⁻¹ | Trastuzumab A121N (antibody) |
| 0.433 µM | 0.686 µM | – | 0.0099 µM | 110000 M⁻¹ s⁻¹ | 0.001 s⁻¹ | HEK Trastuzumab (antibody) |
